Values belong to the molecule of their own block, whether it stands above or below them.
Assays:
[1] = biological target: recombinant human CLASP2 C-terminal fragment (CLASP2-1213-1515) (human); assay: SEC + other: density gradient centrifugation
[2] = biological target: T1, CLASP2 (endogenous, HeLa cell extracts) (human (endogenous in HeLa)), O75122; assay: SEC + other: density gradient centrifugation; conditions: remark: other sources report otherwise
T1 chain: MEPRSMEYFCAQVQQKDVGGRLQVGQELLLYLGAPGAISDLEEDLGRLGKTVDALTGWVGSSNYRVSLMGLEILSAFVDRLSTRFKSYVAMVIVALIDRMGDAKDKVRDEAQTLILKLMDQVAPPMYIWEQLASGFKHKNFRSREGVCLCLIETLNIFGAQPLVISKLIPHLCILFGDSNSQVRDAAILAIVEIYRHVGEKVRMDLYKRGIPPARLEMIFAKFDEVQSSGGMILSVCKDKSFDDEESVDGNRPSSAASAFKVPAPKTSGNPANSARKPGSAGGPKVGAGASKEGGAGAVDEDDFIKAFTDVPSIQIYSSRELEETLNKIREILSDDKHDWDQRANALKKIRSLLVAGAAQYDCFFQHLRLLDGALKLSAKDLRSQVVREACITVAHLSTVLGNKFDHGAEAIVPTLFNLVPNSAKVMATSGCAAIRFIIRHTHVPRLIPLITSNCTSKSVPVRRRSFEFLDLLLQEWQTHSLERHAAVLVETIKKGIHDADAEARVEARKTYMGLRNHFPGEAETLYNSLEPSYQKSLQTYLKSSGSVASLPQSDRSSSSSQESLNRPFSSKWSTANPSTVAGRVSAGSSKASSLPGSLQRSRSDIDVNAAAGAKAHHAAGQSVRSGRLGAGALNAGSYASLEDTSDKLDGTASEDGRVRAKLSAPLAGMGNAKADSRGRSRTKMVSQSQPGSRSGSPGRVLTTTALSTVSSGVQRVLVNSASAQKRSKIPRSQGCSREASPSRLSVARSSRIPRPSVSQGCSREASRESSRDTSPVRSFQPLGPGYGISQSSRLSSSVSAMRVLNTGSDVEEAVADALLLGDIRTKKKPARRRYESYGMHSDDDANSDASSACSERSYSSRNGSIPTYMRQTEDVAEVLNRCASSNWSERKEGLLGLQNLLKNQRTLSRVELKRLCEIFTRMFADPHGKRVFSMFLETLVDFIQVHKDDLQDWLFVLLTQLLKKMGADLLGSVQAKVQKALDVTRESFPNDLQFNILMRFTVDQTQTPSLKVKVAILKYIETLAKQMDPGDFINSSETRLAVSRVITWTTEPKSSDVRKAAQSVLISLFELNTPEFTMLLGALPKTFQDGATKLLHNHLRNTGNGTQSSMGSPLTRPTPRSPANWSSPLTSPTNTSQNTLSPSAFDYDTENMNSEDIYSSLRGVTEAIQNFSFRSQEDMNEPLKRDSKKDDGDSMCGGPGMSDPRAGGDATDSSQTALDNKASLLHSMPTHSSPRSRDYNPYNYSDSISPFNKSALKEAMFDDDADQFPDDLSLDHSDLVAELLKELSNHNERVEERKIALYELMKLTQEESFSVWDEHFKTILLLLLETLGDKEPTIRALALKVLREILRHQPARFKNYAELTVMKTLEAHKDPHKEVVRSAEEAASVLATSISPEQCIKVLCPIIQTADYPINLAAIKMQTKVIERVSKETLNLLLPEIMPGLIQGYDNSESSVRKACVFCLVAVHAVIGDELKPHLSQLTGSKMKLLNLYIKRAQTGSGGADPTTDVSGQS

stoichiometry N [1]: 2
Molecule: recombinant human CLASP2 C-terminal fragment (CLASP2-1213-1515) (domain or fragment)

stoichiometry N [2]: 2
B1: CLASP2 (endogenous, HeLa cell extracts), O75122-3 1-1515 (natural protein)
chain: T1 chain
